In one experiment the target is FcγRIIIa (human) (UniProt P08637). Put plainly: cell-based or functional assay.
Sequence of FcγRIIIa (human) (P08637 17-208 limits assumed): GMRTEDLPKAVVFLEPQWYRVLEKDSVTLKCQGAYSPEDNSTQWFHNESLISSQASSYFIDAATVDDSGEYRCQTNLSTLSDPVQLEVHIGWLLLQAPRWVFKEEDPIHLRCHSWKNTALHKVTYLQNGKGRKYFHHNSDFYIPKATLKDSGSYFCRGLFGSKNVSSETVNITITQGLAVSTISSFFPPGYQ
In turn, “2h S239D/K326A/E333A (construct 16), anti-CD142 antibody” returned an ADCC EC50 of 0.14 ng/mL.
On to “2h S267E/I332E (construct 17), anti-CD142 antibody”, for which the ADCC EC50 was 5.6 ng/mL and the ADCC fold (EC50 IgG1 wt/EC50 construct) is 0.08 fold.
For “IgG1 wt (construct 1), anti-CD142 antibody with wild type human IgG1 constant region”, in that order: 0.42 ng/mL and 1 fold.

Another experiment has the same target. Put plainly: cell-based or functional assay. The source holds these as a separate data set.
“2h F243L/R292P/Y300L (construct 7), anti-CD142 antibody”: the ADCC EC50 stood at 0.31 ng/mL and the ADCC fold (EC50 IgG1 wt/EC50 construct) stood at 15 fold.
For “2h G237A/S239D/I332E (construct 12, X = A), anti-CD142 antibody”, in that order: 0.47 ng/mL and 10 fold.
For “2h K326A/E333A (construct 11), anti-CD142 antibody”, in that order: 21 ng/mL and 0.2 fold.
The substance “2h S239D/H268F/S324T/I332E (construct 9), anti-CD142 antibody” had an ADCC EC50 of 0.7 ng/mL.
Turning to “2h S239D/I332E (construct 5), anti-CD142 antibody”, the ADCC (shift in apparent EC50 against IgG1 wt), PBMC effectors, MDA-MB-231 targets was found to be 8 fold; the ADCC EC50 was 0.53 ng/mL; the ADCC fold (EC50 IgG1 wt/EC50 construct) was determined as 9 fold.
For “IgG1 wt (construct 1), anti-CD142 antibody with wild type human IgG1 constant region”, the ADCC EC50 worked out at 4.8 ng/mL.

The record behind these values is patent publication US20130011386A1.
